This is an account of results in patent publication US20140227287A1.

This assay has as its target human βNGF (R&D Systems, Inc.) (human) (UniProt P01138). The assay is described as follows: dynamic light scattering of antibody incubated with human βNGF.

Chain of human βNGF (R&D Systems, Inc.) (human) (P01138 122-241 limits assumed): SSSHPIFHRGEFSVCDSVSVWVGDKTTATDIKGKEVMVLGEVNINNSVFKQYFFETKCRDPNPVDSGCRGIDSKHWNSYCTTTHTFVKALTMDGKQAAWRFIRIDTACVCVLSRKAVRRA

As for Control IgG (antibody), the Particle size Average (d · nm), IgG + rhNGF stood at 12.6 nm·days and the Particle size Peak (d · nm), IgG + rhNGF stood at 11.7 nm·days.
